Results published in US8835136B2, “Engineered amine dehydrogenases and methods of use thereof” (Georgia Tech Research Corporation, priority 2012, dated 2014).

Key:
[1] = Oxidative deamination, spectrophotometric assay at 340 nm; assay type: biochemical; conditions: deamination
Experimental: Activity of purified proteins was measured using a spectrophotometric assay at 340 nm, corresponding to the cofactor nicotinamide adenine dinucleotide (NADH, ε340=6220 M^−1 cm^−1) (Dawson, et al., Clarendon Press, (1989). For reductive amination, reactions took place in 500 mM NH4Cl/NH4OH at pH 9.6, with 200 μM NADH and 20 mM of the ketone substrate, unless otherwise specified. […] All reactions were performed at 25° C. unless otherwise specified. Enzyme was added in 10 μL aliquots in dilute concentrations. Enzyme concentrations varied upon activity levels with the substrate present, but were dilute enough to ensure linear conversion kinetics over the analytical time period (10 min to 30 min). Specific activities were then calculated from the stoichiometric conversion of cofactor as determine by the change in absorbance at 340 nm over time.

[2] = Thermostability by circular dichroism (PheDH); assay type: physicochemical
Excerpt: The thermostability of the AmDH was compared to its wild-type scaffold using two different methods, circular dichroism (CD) and a temperature versus activity profile. The mutation of the enzyme scaffold has affected the thermostability, in addition to the enzyme's function. […] Beyond 30 degrees, there is an earlier onset in the pronounced loss of structure of the double variant compared to the wild type; however, the slope folded fraction over temperature stays constant, indicative of constant enthalpy of melting. The K77S N276L mutations have slightly destabilized the protein structure, resulting in a melting point of 59.9° C., 4.4° C. less than the wild type. The specific cause for this change is difficult to determine. It likely to be either disruption of the ‘ideal’ packing of the wild-type enzyme's hydrophobic core or a net decrease in hydrophobicity by the amino acid substitutions which leads to a lower folding entropy.

[3] = Conversion with GDH cofactor recycle system (PheDH-AmDH); assay type: biochemical; conditions: 100 mL, 20 mM PFPA, 48 hours
Experimental: The GDH consumes glucose present in solution to cheaply and efficiently regenerate the NADH cofactor, allowing conversion to continue beyond stoichiometric depletion of NADH. In a 100 mL reaction volume containing 20 mM PFPA, conversion was allowed to continue for 48 hours followed by extraction and ^1H-NMR to confirm the product formation and conversion levels. […] Under the same reaction conditions, 17.46 mg of the AmDH enhanced the overall conversion to 93.8% and 73.9% yield. Evidence of chirality was indicated by different NMR signals of the C3 hydrogens (δ 2.67, 2.49) which are adjacent to the C2 stereocenter (FIG. 18).

B1: K77S N276L: PheDH-AmDH double variant, SEQ ID NO:2; PheDH library 1 hit 1H4 (protein)
chain: SLVEKTSIIKDFTLFEKMSEHEQVVFCNDPATGLRAIIAIHDTTLGPALGGCRMQPYNSVEEALEDALRLSKGMTYSCAASDVDFGGGKAVIIGDPQKDKSPELFRAFGQFVDSLGGRFYTGTDMGTNMEDFIHAMKETNCIVGVPEAYGGGGDSSIPTAMGVLYGIKATNKMLFGKDDLGGVTYAIQGLGKVGYKVAEGLLEEGAHLFVTDINEQTLEAIQEKAKTTSGSVTVVASDEIYSQEADVFVPCAFGGVVNDETMKQFKVKAIAGSANLQLLTEDHGRHLADKGILYAPDYIVNSGGLIQVADELYEVNKERVLAKTKHIYDAILEVYQQAELDQITTMEAANRMCEQRMAARGRRNSFFTSSVKPKWDIRN
- Activity, R/S-MBA ([1]; 40 mM, 20 mM of each enantiomer): 0.5 ± 0.2 mU/mg
- Activity, 1,3-DMBA ([1]; 0.1M glycine pH 10.0, 1 mM NAD+, 20 mM, 25° C.): 166.3 ± 0.0 mU/mg
- decrease of melting point versus the wild type [2]: 4.4 °C
- melting point ([2]; 100 μg mL-1, 50 mM sodium phosphate pH 8.0): 59.9 °C
- conversion of 4-fluorophenyl acetone ([3]; 7.48 mg AmDH): 89.4%
- overall conversion ([3]; 17.46 mg AmDH): 93.8%
